From paper PMC3131183

Key:
Test in all cases: FRET or BRET
[1] = molecular target: Gγ subunit (human (endogenous in PMNs)) (UniProt P59768)
[2] = molecular target: Hck (haemopoietic cell kinase) (human (endogenous in PMNs)) (UniProt P08631)
[3] = molecular target: β-arrestin-1 (human (endogenous in PMNs)) (UniProt P49407)
Sequence of UniProt P49407 (P49407 whole entry): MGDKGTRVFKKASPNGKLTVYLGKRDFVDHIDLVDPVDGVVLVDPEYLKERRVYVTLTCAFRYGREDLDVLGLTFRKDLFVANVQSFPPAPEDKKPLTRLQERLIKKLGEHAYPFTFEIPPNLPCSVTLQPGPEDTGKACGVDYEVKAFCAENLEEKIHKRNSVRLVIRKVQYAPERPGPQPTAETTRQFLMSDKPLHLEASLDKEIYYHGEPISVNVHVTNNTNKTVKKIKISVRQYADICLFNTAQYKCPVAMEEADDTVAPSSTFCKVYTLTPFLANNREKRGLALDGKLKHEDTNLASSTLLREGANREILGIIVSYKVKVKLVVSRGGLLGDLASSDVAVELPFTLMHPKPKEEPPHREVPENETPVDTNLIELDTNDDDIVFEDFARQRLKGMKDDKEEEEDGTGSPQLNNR

Sequence of UniProt P08631 (P08631 whole entry): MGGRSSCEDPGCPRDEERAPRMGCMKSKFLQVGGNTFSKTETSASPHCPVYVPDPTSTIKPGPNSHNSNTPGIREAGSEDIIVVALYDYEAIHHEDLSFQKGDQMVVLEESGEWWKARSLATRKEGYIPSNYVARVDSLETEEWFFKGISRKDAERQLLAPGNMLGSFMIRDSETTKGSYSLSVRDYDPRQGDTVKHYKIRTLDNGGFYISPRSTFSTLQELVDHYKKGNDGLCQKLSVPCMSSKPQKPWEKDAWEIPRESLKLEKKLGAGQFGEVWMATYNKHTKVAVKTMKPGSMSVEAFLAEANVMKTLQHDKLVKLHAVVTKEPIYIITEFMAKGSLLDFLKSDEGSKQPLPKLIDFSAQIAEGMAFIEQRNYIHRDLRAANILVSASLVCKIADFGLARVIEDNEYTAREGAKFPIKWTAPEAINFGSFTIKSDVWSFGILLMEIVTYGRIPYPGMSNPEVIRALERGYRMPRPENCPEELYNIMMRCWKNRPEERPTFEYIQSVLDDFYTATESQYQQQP

Substance | FRET efficiency [1] | FRET efficiency [2] | FRET efficiency [3]
Gβ subunit (from UniProt P62873 1-340) (natural protein) | 58% | 54% | –
clathrin heavy chain (from UniProt Q00610 1-1675) (natural protein) | – | – | 38%
